Patent US20210261685A1

Biological target: human MerTK endogenously expressed on cells (SK-MEL-5 cells; human macrophages) (human) (UniProt Q12866)
Assay: cell-based or functional assay

Sequence of human MerTK endogenously expressed on cells (SK-MEL-5 cells; human macrophages) (human) (Q12866 21-999 limits assumed): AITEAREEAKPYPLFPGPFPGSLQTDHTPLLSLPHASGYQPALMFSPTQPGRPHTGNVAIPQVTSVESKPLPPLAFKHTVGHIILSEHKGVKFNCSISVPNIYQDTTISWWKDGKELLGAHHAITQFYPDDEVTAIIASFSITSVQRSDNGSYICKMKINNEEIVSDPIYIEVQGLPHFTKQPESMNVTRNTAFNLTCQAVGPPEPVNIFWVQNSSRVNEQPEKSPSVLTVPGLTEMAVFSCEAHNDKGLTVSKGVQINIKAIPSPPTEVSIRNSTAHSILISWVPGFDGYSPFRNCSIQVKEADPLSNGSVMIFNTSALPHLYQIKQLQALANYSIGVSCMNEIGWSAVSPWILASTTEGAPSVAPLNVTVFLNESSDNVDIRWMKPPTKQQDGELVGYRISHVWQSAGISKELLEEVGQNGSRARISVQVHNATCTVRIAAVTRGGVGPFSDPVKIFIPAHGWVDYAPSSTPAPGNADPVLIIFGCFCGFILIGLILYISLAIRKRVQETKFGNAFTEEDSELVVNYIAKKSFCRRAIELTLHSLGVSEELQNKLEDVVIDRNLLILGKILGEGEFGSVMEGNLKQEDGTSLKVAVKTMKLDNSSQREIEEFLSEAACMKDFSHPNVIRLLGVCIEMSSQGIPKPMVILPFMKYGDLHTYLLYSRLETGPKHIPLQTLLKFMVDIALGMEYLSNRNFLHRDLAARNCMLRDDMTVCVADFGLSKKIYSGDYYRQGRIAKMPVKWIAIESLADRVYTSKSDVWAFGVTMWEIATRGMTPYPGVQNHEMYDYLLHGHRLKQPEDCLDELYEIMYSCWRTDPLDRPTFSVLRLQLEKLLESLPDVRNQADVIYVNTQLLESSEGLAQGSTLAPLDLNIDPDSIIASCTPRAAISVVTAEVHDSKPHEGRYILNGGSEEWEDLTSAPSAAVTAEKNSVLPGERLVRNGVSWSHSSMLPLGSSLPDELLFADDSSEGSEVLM

Gas6-mediated pAKT activity, average IC50, human M2c macrophages: 0.531 nM
B1: MTK-22 (antibody, human IgG1, V domains shown)
VH: QVQLQQPGADLVEPGASVKLSCKASGYTFTSYWMHWVKQRPGQGLEWIGEIDPSDSSSNYNQKFKGKATLTVDKSSSTAYMHLNSLTSEDSAVYYCARRYYYGSLYFDNWGQGTTLTVSS
VL: DVVMTQSHKFMSTSVGDRVSITCKASQDVGTAIAWYQQKPGQSPKLLIYWASTRHTGVPDRFTGSRSGTVFTLTISNVQSEDLADYFCQQYTSYPLTFGSGTKLEIK
